Laboratory results published in patent US20200392236A1 (JUNO THERAPEUTICS, published 2020).
Substitutions are numbered along the chain they refer to. Numbers in names are those of the source.

Assays:
[1] = biological target: T1, human BCMA (B-cell maturation antigen) on cells (human, UniProt Q02223 1-184); experiment: flow cytometry, hBCMA-expressing HEK293 against parental HEK293 cells
T1 construct: whole, on cells; also called hBCMA; hBCMA/HEK293 cell line
T1 sequence (looked up): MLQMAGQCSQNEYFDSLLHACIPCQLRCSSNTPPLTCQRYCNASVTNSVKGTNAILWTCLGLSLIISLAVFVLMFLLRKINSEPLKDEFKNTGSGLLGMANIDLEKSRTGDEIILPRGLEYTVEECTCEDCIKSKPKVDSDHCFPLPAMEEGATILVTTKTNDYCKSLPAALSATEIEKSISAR
Procedure: Binding of exemplary scFv clones to hBMCA-expressing HEK293 cells was assessed and binding was compared to parental HEK293 cells.

[2] = biological target: T1, human BCMA (B-cell maturation antigen) …; experiment: flow cytometry, hBCMA-overexpressing HEK293 compared with OPM2 and RPMI-8226 cells
Procedure: Binding of exemplary scFv clones to hBMCA-overexpressing HEK293 cells as compared to OPM2 and RPMI-8226 cell lines that express moderate levels of endogenous BCMA was assessed.

B1: BCMA-18 anti-BCMA scFv (scFv)
scFv: EVQLLESGGGLVQPGGSLRLSCAASGFTFSSYWMSWHRQAPGKGPEWVAHINQDGSEKYYVDSVKGRFTISRDNAESSLYLQMNSLRAEDTAVYYCARWLAVTNWGQGTLVTVSSGGGGSGGGGSGGGGSQSVLTQPPSASGTPGQRVTISCSGSGSNIGSNDVSWYQQIPGTAPKLLIYWNDQRPSGVPDRFSGSKSGTSASLAISGLRSEDEADYYCAAWDDSLNGWVFGGGTKLTVL
notes: VH-(G4S)3-VL scFv
With B1 the “fold selective binding (hBCMA-expressing HEK293 over parental HEK293 cells)” value (“fold selective binding” for short) [1] was 2.2 fold.

B2: BCMA-20 anti-BCMA scFv (scFv)
scFv: EVQLLESGGGLVQPGRSLRLSCAASGFTFDDYAMHWVRQAPGKGLEWVSGISWNSGSIGYADSVKGRFTISRDNAKNSLYLQMNSLRAEDTALYYCAKGGLGITPYYFDYWGQGTLVTVSSGGGGSGGGGSGGGGSQPVLTQPPSASGTPGQRVTISCSGGKTVNWFRQVPGTAPQLLIYSNDQRPSGVPDRFSGSKSGSSASLDISGLQSEDEAYYYCGSWDDSLNAWVFGGETKLTVL
notes: VH-(G4S)3-VL scFv
With B2 the “fold selective binding” value [1] was 10.8 fold.

B3: BCMA-21 anti-BCMA scFv (scFv)
scFv: EVQLVESGGGLVKPGGSLKLSCAASGFTFSDYYMSWIRQAPGKGLEWVSYISSSGSTIYYADSVKGRFTISRDNAKNSLYLQMNSLRAEDTAVYYCAKVDGGYTEDYWGQGTLVTVSSGGGGSGGGGSGGGGSQSVLTQPPSASGTPGQRVTISCSGSGSNIGSNDVSWYQQIPGTAPKLLIYWNDQRPSGVPDRFSGSKSGISASLAISGLRSEDEADYYCAAWDDSLNGYVFGTGTKVTVL
notes: VH-(G4S)3-VL scFv
For B3, the “fold selective binding” value [1] was 3.4 fold.

B4: BCMA-22 anti-BCMA scFv (scFv)
scFv: EVQLVESGGGLVKPGGSLRLSCAASGFTFSDYYMSWIRQAPGKGLEWVSYISSSGSTIYYADSVKGRFTISRDNAKNSLYLQMNSLRAEDTAVYYCAKVDGDYTEDYWGQGTLVTVSSGGGGSGGGGSGGGGSQSALTQPASVSGSPGQSITISCTGSSSDVGKYNLVSWYQQPPGKAPKLIIYDVNKRPSGVSNRFSGSKSGNTATLTISGLQGDDEADYYCCSYGGSRSYVFGTGTKVTVL
notes: VH-(G4S)3-VL scFv
For B4, the “fold selective binding” value [1] was 7.5 fold.

B5: BCMA-8 anti-BCMA scFv (scFv)
scFv: QVQLVQSGGGLVQPGRSLRLSCTASGFTFGDYAMSWFRQAPGKGLEWVGFIRSKAYGGTTEYAASVKGRFTISRDDSKSIAYLQMNSLKTEDTAVYYCAAWSAPTDYWGQGTLVTVSSGGGGSGGGGSGGGGSDIVMTQSPDSLAVSLGERATINCKSSQSVLYSSNNKNYLAWYQQKPGQPPKLLIYWASTRESGVPDRFSGSGSGTDFTLTISSLQAEDVAVYYCQQYYSTPYTFGQGTKLEIK
notes: VH-(G4S)3-VL scFv
B5: binds [2].

B6: BCMA-3 anti-BCMA scFv (scFv)
scFv: B5 scFv with A145V, Y164H, S232T, Y235L, Q239G, L243V
notes: VH-(G4S)3-VL scFv
B6: binds [2].

B7: BCMA-31 anti-BCMA scFv (scFv)
scFv: B5 scFv with Q1E, I135V, N155S, Y164N, L172V, Q176K, L186V, Y188S, E244D
notes: VH-(G4S)3-VL scFv
B7: binds [2].

B8: BCMA-2 anti-BCMA scFv (scFv)
scFv: EVQLVESGGGLVKPGGSLRLSCAASGFTFSDYYMSWIRQAPGKGLEWVSYISSSGSTIYYADSVKGRFTISRDNAKNSLYLQMNSLRAEDTAVYYCAKVDGPPSSDIWGQGTMVTVSSGGGGSGGGGSGGGGSEIVMTQSPATLSVSPGETATLSCRASQSIKTNLAWYQQKPGQAPRLLIYAASTRATGIPDRFSGSGSGTDFTLTITRLEPEDFAVYYCQQYGSSPTFGRGTKLEIK
notes: VH-(G4S)3-VL scFv
B8: binds [2].

B9: BCMA-4 anti-BCMA scFv (scFv)
scFv: QVQLVQSGGGLVQPGRSLRLSCTASGFTFGDYAMSWFRQAPGKGLEWVGFIRSKAYGGTTEYAASVKGRFTISRDDSKSIAYLQMNSLKTEDTAVYYCAAWSAPTDYWGQGTLVTVSSGGGGSGGGGSGGGGSAIRMTQSPSSLSASLGDRVTITCRASQDIRNSLAWYQQRPGKAPKLLLSAASRLESGVPSRFSGTTSGAEYALSISSLQPEDVASYFCQQYYSLPLSFGGGTKVEIK
notes: VH-(G4S)3-VL scFv
B9: binds [2].

B10: BCMA-7 anti-BCMA scFv (scFv)
scFv: QVQLVQSGGGLVQPGRSLRLSCTASGFTFGDYAMSWFRQAPGKGLEWVGFIRSKAYGGTTEYAASVKGRFTISRDDSKSIAYLQMNSLKTEDTAVYYCAAWSAPTDYWGQGTLVTVSSGGGGSGGGGSGGGGSVIQLTQSPSSLSASVGDRVTITCRASQDIGDYLAWFQQRPGKAPKSLIYVASTLQSGVPSRFSGSGSGTHFTLTINSLQPEDFATYYCQQYHSHPWTFGPGTKVDIK
notes: VH-(G4S)3-VL scFv
B10: binds [2].

B11: BCMA-9 anti-BCMA scFv (scFv)
scFv: EVQLVQSGGGLVKPGGSLRLSCAASGFTFSDYYMSWIRQAPGKGLEWVSYISSSGSTIYYADSVKGRFTISRDNAKNSLYLQMNSLRAEDTAVYYCARVDGDYVDDYWGQGTLVTVSSGGGGSGGGGSGGGGSSYELTQPPSVSVAPGQTARVTCGANNIGSKSVHWYQQKPGQAPMLVVYDDDDRPSGIPERFSGSNSGNTATLTISGVEAGDEADYFCHVWDRSRDHYVFGTGTKLTVL
notes: VH-(G4S)3-VL scFv
B11: binds [2].

B12: BCMA-10 anti-BCMA scFv (scFv)
scFv: EVQLVESGGGLVKPGGSLRLSCAASGFPFSDYYMSWIRQAPGKGLEWVSYISSSGSTIYYADSVKGRFTISRDNAKNSLYLQMNSLRAEDTAVYYCAKVDGPPSFDIWGQGTMVTVSSGGGGSGGGGSGGGGSSYVLTQPPSVSVAPGQTARITCGGNNIERKNVHWYQQKPGQAPVPVVYDDSDRASGIPERFSASNSGNTATLTISGAQATDEAEYYCQAWDSSSTLYVFGTGTKLTVL
notes: VH-(G4S)3-VL scFv
B12: binds [2].

B13: BCMA-12 anti-BCMA scFv (scFv)
scFv: EVQLVESGGGLVKPGGSLRLSCAASGFTFSDYYMSWIRQAPGKGLEWVSYISSSGSTIYYADSVKGRFTISRDNAKNSLYLQMNSLRAEDTAVYYCAKVDGPPSFDIWGQGTMVTVSSGGGGSGGGGSGGGGSQSALTQPPSVSAAPGQKVTISCSGSRSNIGNNYVSWYQQLPGTAPKLLIYDNAKRPSGIPDRFSGSKSGTSATLDIAGLQTGDEADYYCQVWDSSSDHWVFGGGTKLTVL
notes: VH-(G4S)3-VL scFv
B13: binds [2].

B14: BCMA-32 anti-BCMA scFv (scFv)
scFv: QVQLVESGGGLVKPGGSLRLSCAASGFTFSDYYMSWIRQAPGKGLEWVSYISSSGSTIYYADSVKGRFTISRDNAKNSLYLQMNSLRAEDTAVYYCAKVDGPPSFDIWGQGTMVTVSSGGGGSGGGGSGGGGSQTVVTQPPSVSVAPGQTARITCGGNNIGSKGVHWYRQRPGQAPEVVIYDDSDRPSGVPDRFSGSNSGNTATLTVRGVEAGDEADYYCQVWDSSSDHWVFGGGTKLTVL
notes: VH-(G4S)3-VL scFv
B14: binds [2].
